Assay results published in patent publication US20030022283A1 (published 2003).
Substitutions are numbered along the chain they refer to. Values joined by “and” are separate entries in the source; they are usually repeats but may differ in a detail not shown here. Equal values may be shown once. Blank lines part the entries; values can stand above or below the molecule they belong to.

Tests used:
[1] = biological target: T1, Rat NPY Y5 receptor, Y861 clone (rat, UniProt Q63634 1-445); experiment: competition with [125I]PYY, membranes of stably transfected 293S cells
T1 sequence: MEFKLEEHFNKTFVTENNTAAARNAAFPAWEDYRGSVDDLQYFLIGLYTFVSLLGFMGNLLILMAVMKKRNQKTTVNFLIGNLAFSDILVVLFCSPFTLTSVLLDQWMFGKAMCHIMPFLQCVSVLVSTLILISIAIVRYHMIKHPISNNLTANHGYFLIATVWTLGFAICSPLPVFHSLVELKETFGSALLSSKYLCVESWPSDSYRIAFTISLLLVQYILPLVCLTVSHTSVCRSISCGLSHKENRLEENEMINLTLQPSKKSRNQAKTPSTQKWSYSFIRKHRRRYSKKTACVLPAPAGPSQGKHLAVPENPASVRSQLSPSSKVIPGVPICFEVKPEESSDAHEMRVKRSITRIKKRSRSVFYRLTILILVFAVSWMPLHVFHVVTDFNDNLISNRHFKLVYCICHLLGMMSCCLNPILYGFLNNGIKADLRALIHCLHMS

[2] = biological target: T1, Rat NPY Y5 receptor, Y861 clone; experiment: competition with [125I]PYY, rat Y5 Y861 clone
[3] = biological target: Rat NPY Y5 receptor, Y555 clone (rat) (UniProt Q63634); experiment: competition with [125I]PYY, membranes of transiently transfected COS-7 cells, average of two experiments
[4] = biological target: T1, Rat NPY Y5 receptor, Y861 clone; experiment: competition with [125I]PYY, membranes of transiently transfected COS-7 cells, one of the two experiments averaged
[5] = biological target: Rat NPY Y5 receptor, 6B clone (Y217.24.13.6B) (rat) (UniProt Q63634); experiment: as above
[6] = biological target: Rat NPY Y5 receptor, Y555 clone (rat) (UniProt Q63634); experiment: as above
[7] = biological target: T1, Rat NPY Y5 receptor, Y861 clone; experiment: competition with [125I]PYY, membranes of transiently transfected COS-7 cells
[8] = biological target: T1, Rat NPY Y5 receptor, Y861 clone; experiment: competition with [125I]PYY, membranes of transiently transfected COS-7 cells, average of two experiments
[9] = biological target: Y5 receptor (clone not specified), transiently expressed in COS-7 cells; experiment: saturation binding, membranes of transiently transfected cells, nonlinear regression
[10] = biological target: T2, Rat Y4/PP1 receptor (clone) (rat, UniProt Q63447 1-375); experiment: competition with rat [125I]PP, rat Y4/PP1 clone
T2 construct: also called Rat Y4/PP1 (clone)
T2 sequence (Q63447 whole entry): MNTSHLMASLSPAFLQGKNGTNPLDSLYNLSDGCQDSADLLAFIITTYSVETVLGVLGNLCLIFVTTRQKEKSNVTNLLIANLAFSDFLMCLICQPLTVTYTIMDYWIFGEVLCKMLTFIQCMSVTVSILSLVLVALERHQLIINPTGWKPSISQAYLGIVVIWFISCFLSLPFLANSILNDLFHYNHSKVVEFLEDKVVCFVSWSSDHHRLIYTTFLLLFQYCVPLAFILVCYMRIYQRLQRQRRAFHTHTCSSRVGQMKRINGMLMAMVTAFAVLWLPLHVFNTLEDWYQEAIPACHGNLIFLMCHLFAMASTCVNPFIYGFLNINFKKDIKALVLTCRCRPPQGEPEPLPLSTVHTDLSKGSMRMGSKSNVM

[11] = biological target: Human NPY Y5 receptor (human) (UniProt Q15761); experiment: competition with [125I]PYY, membranes of transiently transfected cells, one of the two experiments averaged
[12] = biological target: T1, Rat NPY Y5 receptor, Y861 clone; experiment: cell-based or functional assay
[13] = biological target: T3, Human NPY Y5 receptor (human, UniProt Q15761 1-445); experiment: cell-based or functional assay
T3 sequence: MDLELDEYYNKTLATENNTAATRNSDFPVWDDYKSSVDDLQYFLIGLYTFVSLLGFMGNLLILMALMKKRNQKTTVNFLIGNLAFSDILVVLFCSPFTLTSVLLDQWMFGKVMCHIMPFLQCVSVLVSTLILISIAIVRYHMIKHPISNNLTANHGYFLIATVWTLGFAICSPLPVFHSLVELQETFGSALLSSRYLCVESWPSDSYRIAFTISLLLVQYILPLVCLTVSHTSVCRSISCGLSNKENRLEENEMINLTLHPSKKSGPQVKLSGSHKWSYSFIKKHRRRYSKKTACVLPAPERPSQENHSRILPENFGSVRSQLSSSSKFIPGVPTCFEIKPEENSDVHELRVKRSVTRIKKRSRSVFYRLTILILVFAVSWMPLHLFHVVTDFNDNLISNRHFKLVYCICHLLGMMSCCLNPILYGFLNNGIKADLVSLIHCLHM

[14] = biological target: T3, Human NPY Y5 receptor; experiment: competition with [125I]PYY, membranes of stably transfected 293 cells
[15] = biological target: T4, Rat NPY Y5 receptor, 6B clone (Y217.24.13.6B) (rat, UniProt Q63634 1-445); experiment: competition with [125I]PYY, membranes of transiently transfected COS-7 cells
T4 construct: 445 amino acid protein; assayed as membranes of transiently transfected COS-7 cells; Has proline where Y555/Y589/Y861 have leucine in the first transmembrane domain; also called RAT 6B Clone; Y5 clone
T4 sequence: T1 sequence with L61P
Description: The binding assays were performed on GF/C Millipore (Bedford, Mass.) 96-well plates pretreated with 0.02% polyethylenimine (PEI) for at least 2 hours prior to use. The PEI was aspirated from the plates on a vacuum manifold immediately before the samples were added to the wells. All peptides, tissue and radioligand were diluted with binding buffer (25 mM Tris, 120 mM NaCl, 5 mM KCl, 1.2 mM KH₂PO₄, 2.5 mM CaCl₂, 1.2 mM MgSO₄, 0.1% BSA and 0.5 mg/ml bacitracin, pH 7.4).
Each point is the average value of triplicate determinations from a representative experiment. […] Kᵢ values were calculated from the IC₅₀ values using the Cheng-Prusoff correction, such that Kᵢ=IC₅₀/(1±(L/Kd)), where L is the radioligand concentration and Kd is the dissociation constant.

[16] = biological target: T3, Human NPY Y5 receptor; experiment: competition with [125I]PYY, membranes of transiently transfected cells, average of two experiments
[17] = biological target: T3, Human NPY Y5 receptor; experiment: competition with [125I]PYY, membranes of transiently transfected cells, one of the two experiments averaged

Molecule: (13-36)PYY (species not stated, Table 2) (peptide)
Ki [1]: 29 nM

Molecule: porcine (18-36)NPY (from UniProt P01304 27-45) (peptide)
Ki [7]: 206 nM

Molecule: porcine (3-36)NPY (from UniProt P01304 12-45) (peptide)
Ki [8]: 2 nM
Ki [4]: 2.3 nM

B1: human pancreatic polypeptide (ligand, UniProt P01298 30-65, looked up)
peptide: APLEPVYPGDNATPEQMAQYAADLRRYINMLTRPRY
notes: mature; also called hPP
EC50, forskolin-stimulated adenylate cyclase (cAMP radioimmunoassay), stably transfected 293S cells [12]: 1 nM
IC50 [2]: 4.9 nM
IC50 [10]: 0.065 nM
Ki [1]: 2.5 nM
Ki [7]: 4 nM

Next, values leading:

IC50 [2]: 7 nM
Molecule: (32D-Trp)NPY (peptide)

IC50 [3]: 40 nM
Ki [4]: 25 nM and 19 nM
Ki [5]: 7.9 nM and 7.5 nM
IC50 [6]: 38 nM and 41 nM
Molecule: porcine (13-36)NPY (from UniProt P01304 22-45) (peptide)

receptor density (Bmax) (fmol/mg protein) [9]: 140
Molecule: [125I]PYY (radioiodinated peptide YY) (ligand)

IC50 [10]: 20 nM
Molecule: rat/human (Leu31Pro34)(3-36)NPY (from UniProt P01303 31-64) (peptide)

Ki [7]: 86 nM
Ki [11]: 89 nM and 65 nM
Molecule: rat (13-36)NPY (as printed in Table 1) (from UniProt P07808 42-65) (peptide)

EC50, forskolin-stimulated adenylate cyclase (cAMP radioimmunoassay), stably transfected 293S cells [12]: 112 nM
EC50, forskolin-stimulated adenylate cyclase (cAMP radioimmunoassay), stably transfected 293 cells [13]: > 1000 nM
IC50 [2]: 325 nM
IC50 [10]: 0.071 nM
Ki [14]: 286 nM
Ki [1]: 203 nM
Ki [15]: 62 nM
Ki [7]: 296 nM
Ki [16]: 436 nM
Ki [17]: 290 nM and 582 nM
B2: rat pancreatic polypeptide (ligand, UniProt P06303 30-65, looked up)
peptide: APLEPMYPGDYATHEQRAQYETQLRRYINTLTRPRY
notes: mature; also called rPP; rat PP
